Reference: publication PMC7959842, “Deregulation of Factor H by Factor H-Related Protein 1 Depends on Sialylation of Host Surfaces” (Frontiers in Immunology, 2021)
pKd: −log10 of the molar value.

Legend:
[1] = target: C3b (UniProt P01024); test: SPR; AP C3 convertase formation: ~6,000 RU C3b amine-coupled on a CMD500M chip; FB (600 nM) + FD (100 nM) injected alone or mixed with analyte (9.6 uM); signal of the analyte alone subtracted; 25 C, PBS 0.005% Tween20, 1 mM MgCl2
[2] = target: C3b (UniProt P01024); test: SPR; C3b immobilised in two ways: biotin coupling (~1,500 RU on a streptavidin SAP chip) and amine coupling (~7,250 RU on a CMD500M chip); analytes flowed (FH18-20 constructs 0.16-40 or 0.63-40 uM, FHR-1 constructs 0.04-10 uM); 25 C, PBS 0.005% Tween20, 25 ul/min; 1:1 steady-state affinity fit; the printed ranges span both ways of immobilisation

Row | decrease of the AP C3 convertase signal (FB + FD on C3b) with the analyte co-injected at 9.6 uM [1] | pKd [2] | Substance
1 | 50% | – | FHR-1 (factor H-related protein 1, FHR-1*B, wild-type) (from UniProt Q03591 19-330) (natural protein)
2 | 50% | 5.82 to 5.85 | FHR-1(SV) (from UniProt Q03591 19-330) (natural protein)
